Data on four molecules can be found in publication PMC5258196 (Biochemistry, 2016).

Assay [1] deals with GrxS14 (Arabidopsis thaliana) (UniProt Q84Y95). Particulars: cited from earlier work.
The target in assay [2] is T1, S. cerevisiae monothiol glutaredoxin Grx3 (S. cerevisiae, UniProt Q03835 1-250).
T1 sequence (looked up): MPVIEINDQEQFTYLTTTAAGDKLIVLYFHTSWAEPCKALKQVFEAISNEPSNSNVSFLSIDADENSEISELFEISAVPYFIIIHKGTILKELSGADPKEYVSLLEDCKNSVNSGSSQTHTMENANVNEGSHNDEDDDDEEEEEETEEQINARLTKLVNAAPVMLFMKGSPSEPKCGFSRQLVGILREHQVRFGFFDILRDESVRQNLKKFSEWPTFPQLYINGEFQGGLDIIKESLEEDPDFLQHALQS
Description: ITC.

Assay [3] concerns the target T2, E. coli monothiol glutaredoxin Grx4 (E. coli, UniProt P0AC69 1-115).
T2 sequence (looked up): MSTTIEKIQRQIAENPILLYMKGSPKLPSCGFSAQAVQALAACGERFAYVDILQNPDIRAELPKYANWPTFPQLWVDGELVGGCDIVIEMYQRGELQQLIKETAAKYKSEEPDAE
Description: ITC. For orientation: In ITC the heat of successive injections is recorded.

Sequence of GrxS14 (Arabidopsis thaliana) (Q84Y95 64-173): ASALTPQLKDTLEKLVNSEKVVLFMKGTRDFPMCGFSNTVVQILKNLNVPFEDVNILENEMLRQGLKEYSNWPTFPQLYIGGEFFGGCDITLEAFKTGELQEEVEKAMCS

BolA1 (from UniProt Q682I1): the Kd (commonly the equilibrium constant for the complex coming apart) in assay [1] was 7 µM.

B1: S. cerevisiae Fra2 (natural protein, UniProt P53082 1-120, looked up)
chain: MTGERIEKVKINDEFAKSHFLTTQWRETKRQRHYKMPVTEQGLRERIESAIPQVYHIIVTDLSYGCGQSFDIVVVSDFFQGKSKLMRSRAVNKAVKEELQEIHAFSCKCYTEEEWSKIVV
Turning to B1, in assay [2], binding was characterised by a dissociation constant (Kd) of 20.8 ± 6.6 µM; the dH was -10.1 ± 5.4 kcal/mol; the stoichiometry N (as a rule, a count of units in the complex or per binding partner) stood at 0.4 ± 0.19 sites.

B2: E. coli BolA-like protein IbaG (natural protein, UniProt P0A9W6 1-84, looked up)
chain: MENNEIQSVLMNALSLQEVHVSGDGSHFQVIAVGELFDGMSRVKKQQTVYGPLMEYIADNRIHAVSIKAYTPAEWARDRKLNGF
As for B2, in assay [3], the Kd was determined as 3.4 ± 0.1 µM, the dH is -5.9 ± 0.1 kcal/mol and the “stoichiometry N” value turned out to be 0.7 ± 0.01 sites.

B3: E. coli BolA (natural protein, UniProt P0ABE2 1-105, looked up)
chain: MMIRERIEEKLRAAFQPVFLEVVDESYRHNVPAGSESHFKVVLVSDRFTGERFLNRHRMIYSTLAEELSTTVHALALHTYTIKEWEGLQDTVFASPPCRGAGSIA
For B3, in assay [3], the equilibrium dissociation constant (Kd) is 4.6 ± 0.9 µM, the dH was -3.1 ± 0.1 kcal/mol and the “stoichiometry N” value turned out to be 0.97 ± 0.03 sites.
